Here are results for 1 substance from PMC8017132.

Test [1] concerns the target activated coagulation factor XI (UniProt P03951). Nature of the test: stoichiometry of inhibition titration (residual protease activity); varying ratios of AAT variant to protease incubated at ambient temperature for 2 h, residual activity determined at 37°C, line regressed to zero residual activity.
The target is the same in test [2]. In words: inhibition kinetics (residual protease activity on chromogenic substrate); pseudo-first-order, at least a 10:1 molar ratio of AAT variant to protease (5–75 nM), 37°C, discontinuous method; k2 = kobs divided by the initial AAT variant concentration.
The target of another test is activated protein C (UniProt P04070). The test is described as above.
In another test the target is factor XIIa (UniProt P00748). Described as above.
For a further test, the target named is thrombin (UniProt P00734). The test is described as above.

UniProt P03951, sequence (P03951 19-387, chain 1 of 2): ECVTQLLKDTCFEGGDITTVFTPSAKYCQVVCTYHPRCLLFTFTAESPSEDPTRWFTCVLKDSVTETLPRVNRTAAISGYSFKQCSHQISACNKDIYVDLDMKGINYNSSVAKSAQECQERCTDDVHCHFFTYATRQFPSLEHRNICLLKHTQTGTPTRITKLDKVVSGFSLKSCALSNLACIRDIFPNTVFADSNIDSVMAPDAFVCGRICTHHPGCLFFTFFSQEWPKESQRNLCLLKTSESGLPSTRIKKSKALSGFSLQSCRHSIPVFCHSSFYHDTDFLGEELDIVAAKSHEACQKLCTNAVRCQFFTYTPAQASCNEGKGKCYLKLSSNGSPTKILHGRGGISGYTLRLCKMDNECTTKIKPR
UniProt P03951, sequence (P03951 388-624, chain 2 of 2): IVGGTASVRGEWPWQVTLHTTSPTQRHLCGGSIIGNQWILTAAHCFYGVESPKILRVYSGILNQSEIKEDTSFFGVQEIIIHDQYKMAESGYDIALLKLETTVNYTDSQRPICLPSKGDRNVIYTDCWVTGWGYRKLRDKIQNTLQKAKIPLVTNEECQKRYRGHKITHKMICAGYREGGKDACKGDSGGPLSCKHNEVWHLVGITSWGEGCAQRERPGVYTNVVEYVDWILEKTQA

In the case of “alpha-1 antitrypsin M358R (from UniProt P01009 25-418) (natural protein)”, the SI (stoichiometry of inhibition) in test [1] was 2.7. The k2 (second-order rate constant of inhibition) in test [2] amounted to 140000 M⁻¹ s⁻¹; with activated protein C it was 25000 M⁻¹ s⁻¹; with factor XIIa it was 23000 M⁻¹ s⁻¹; with thrombin, 180000 M⁻¹ s⁻¹.
